From patent publication US20180051085A1 (published 2018) come the findings set out here.

The target in test [1] is T1, human PD-1 expressed on cells (human, UniProt Q15116 25-288).
T1 construct: whole, on cells; also called SpESFX-2D1
Briefly: binding to 2D1 cells transfected with human PD-1 (FIG. 9).

Test [2] concerns the target T2, recombinant human PD-1-His (human, UniProt Q15116 25-167, limits assumed).
T2 construct: also called recombinant PD-1-His; not shown: His tag
Briefly: binding to recombinant human PD-1-His (FIG. 8).

T1 sequence (Q15116 25-288): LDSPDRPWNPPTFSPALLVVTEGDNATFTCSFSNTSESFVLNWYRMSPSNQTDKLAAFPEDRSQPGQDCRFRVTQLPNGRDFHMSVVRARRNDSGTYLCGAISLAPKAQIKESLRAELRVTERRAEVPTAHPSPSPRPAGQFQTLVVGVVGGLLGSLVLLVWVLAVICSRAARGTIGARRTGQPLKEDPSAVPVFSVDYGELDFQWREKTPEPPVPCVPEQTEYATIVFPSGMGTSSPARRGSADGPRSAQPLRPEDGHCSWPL
T2 sequence (Q15116 25-167 limits assumed): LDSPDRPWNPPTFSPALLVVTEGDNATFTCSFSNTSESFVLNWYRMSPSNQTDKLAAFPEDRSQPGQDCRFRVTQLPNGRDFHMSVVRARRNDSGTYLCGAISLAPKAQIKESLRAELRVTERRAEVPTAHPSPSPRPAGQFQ

B1: humanized anti-PD-1 antibody hPD-1-v5 (antibody, V domains shown)
VH: QVQLVESGGGLVKPGGSLRLSCAASGFAFSSNDMSWVRQAPGKGLEWVATISGGGINTYYPDSVKGRFTISRDNAKNTLYLQMNSLRAEDTAVYYCARRSNYAWFAYWGQGTPVTVSA
VL: DIQLTQSPASLAVSLGQRATISCRASESVDTYGISFMNWFQQKPGQPPKLLISPNQGSGVPARFSGSGSGTDFTLTINSLEAEDTAVYFCQQSKEVPWTFGGGTKLEIK
notes: also called version 5 (V5) antibody
As to B1, the EC50 came out at 3.8 nM in test [1] and 0.148 nM in test [2].

B2: chimeric anti-PD-1 antibody 2G9 (IMMU-cPD-1) (antibody, V domains shown)
VH: VKLQESGGGLVKPGGSLKLSCAASGFAFSSNDMSWVRQTPEKRLEWVATISGGGINTYYPDSVKGRFTISRDNARNTLDLQMSSLRSEDTALYYCARRSNYAWFAYWGQGTPVTVSA
VL: not shown
With B2, the EC50 stood at 1.1 nM in test [1] and 0.043 nM in test [2].

What is called EC50 is the concentration that produces a half-maximal response.
